The results in this text go back to patent publication US20240101645A1 (HENRY M JACKSON FOUNDATION FOR THE ADVANCEMENT OF MILITARY …, published 2024).

Changes are numbered by the printed parent chain.

First the molecules themselves.
T1: MERS-CoV spike antigens (bead panel) (MERS-CoV, UniProt K9N5Q8 18-1296)
T1 sequence: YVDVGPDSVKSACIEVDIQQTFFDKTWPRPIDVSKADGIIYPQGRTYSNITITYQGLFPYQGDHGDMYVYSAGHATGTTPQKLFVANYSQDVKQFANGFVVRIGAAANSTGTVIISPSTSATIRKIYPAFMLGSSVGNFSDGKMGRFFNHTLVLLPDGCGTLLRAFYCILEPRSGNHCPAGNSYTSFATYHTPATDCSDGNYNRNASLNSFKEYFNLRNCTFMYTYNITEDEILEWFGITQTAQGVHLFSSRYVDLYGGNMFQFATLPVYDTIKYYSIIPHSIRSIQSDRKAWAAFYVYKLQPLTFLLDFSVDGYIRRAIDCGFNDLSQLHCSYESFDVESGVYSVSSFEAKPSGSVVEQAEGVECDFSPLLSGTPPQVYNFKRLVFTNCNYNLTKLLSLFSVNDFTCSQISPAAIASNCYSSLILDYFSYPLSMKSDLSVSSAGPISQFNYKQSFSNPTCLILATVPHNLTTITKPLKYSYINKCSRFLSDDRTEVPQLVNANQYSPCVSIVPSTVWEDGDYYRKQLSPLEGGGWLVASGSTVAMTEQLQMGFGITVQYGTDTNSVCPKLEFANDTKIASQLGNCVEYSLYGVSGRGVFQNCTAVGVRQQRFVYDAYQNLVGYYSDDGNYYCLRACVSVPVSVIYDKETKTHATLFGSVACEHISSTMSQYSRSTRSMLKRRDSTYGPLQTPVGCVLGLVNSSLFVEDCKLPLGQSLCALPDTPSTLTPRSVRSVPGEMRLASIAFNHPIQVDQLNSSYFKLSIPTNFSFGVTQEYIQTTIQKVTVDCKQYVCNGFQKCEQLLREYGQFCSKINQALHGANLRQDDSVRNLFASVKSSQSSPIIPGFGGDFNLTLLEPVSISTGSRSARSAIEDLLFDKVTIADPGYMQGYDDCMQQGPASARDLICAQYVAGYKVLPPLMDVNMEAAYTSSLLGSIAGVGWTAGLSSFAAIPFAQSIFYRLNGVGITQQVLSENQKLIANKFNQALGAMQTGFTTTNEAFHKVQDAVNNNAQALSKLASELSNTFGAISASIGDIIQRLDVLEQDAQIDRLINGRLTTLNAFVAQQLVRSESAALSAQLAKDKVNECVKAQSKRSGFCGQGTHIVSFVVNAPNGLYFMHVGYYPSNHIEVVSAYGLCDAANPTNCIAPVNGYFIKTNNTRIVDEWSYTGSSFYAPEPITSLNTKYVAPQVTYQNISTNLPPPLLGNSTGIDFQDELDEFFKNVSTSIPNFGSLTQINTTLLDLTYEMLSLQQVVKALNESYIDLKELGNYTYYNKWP

B1: COV_2196 (antibody, V domains shown)
VH: QVQLVQSGAEVKKPGASVKVSCKVSGYTLIELSMHWVRQAPGKGLEWMGGFDPEDAKTIYAQKFQGRVTMTEDTSTDTAYMELSSLTFEDTAVYYCATTPAFMAAAGDFDYWGQGTLVTVSS
VL: QPVLTQPSSVSVSPGQTATITCSGDVLAKKYARWFQQKPGQAPMLVIYKDTERPSGIPERFSGSSSGTTVTLTINGAQVEDEADYYCYSAAAWVFGGGTKLTVL
notes: human IgG1
B2: COV_2027 (antibody, V domains shown)
VH: EVQLVESGGGLIQPGGSLRLSCAASGFSVSTNYMSWVRQAPGKGLEWVSIIYSGGGTYYADSVKGRFTISRDTSENTLYLQMNSLRAEDTAVYYCASFLVGATGQPWYWGQGTLVTVSS
VL: not shown
notes: human IgG1
B3: COV_2057 (antibody, V domains shown)
VH: EVQLVQSGAEVKKPGESLKISCKGSGYSFISYWIAWVRQMPGKGLEWMGIIYPGDSDTTYSPSFQGQVTISADKSISTAYLQWSSLKASDTAIYYCARLLYYSDSSPLDSWGQGTLVTVSS
VL: DIQMTQSPSSLSASVGDRVTITCRASQSISTYLNWYQQKPGKAPNLLIYAASSLQSGVPSRFSGSGSGTDFTLTISSLQPEDFATYYCQQSHSTPRTFGPGTKVDIK
notes: human IgG1
B4: COV_2169 (antibody, V domains shown)
VH: EVQLVESGGGVVQPGRSLRLSCAASGFTFSRYAMHWVRQAPGKGLEWVAVISYEGSNKYYADSVKGRFTISRNNSNNTLSLQMNSLRPDDTAVYYCVRSGGHYFDAFDLWGQGTMVTVSS
VL: EIVLTQSPGTLSLSPGERATLSCRASQSVSRNYVAWYQQKPGQAPRLLIYGASSRATGIPDRFSGSGSGTDFTLTISRLEPEDFALYYCQQYGSSYTFGQGTKLEIKR
notes: human IgG1
B5: COV_1118 (antibody, V domains shown)
VH: EVQLVESGGGLVKPGGSLRLSCAASGFSFSNYNMNWVRQAPGKGLEWVSYISSSSSYIYYADSVKGRFTISRDNAKNSLYLQMNSLRGEDTAVYSCAREASGAYYFDRSGYFDYWGQGTLVTVSP
VL: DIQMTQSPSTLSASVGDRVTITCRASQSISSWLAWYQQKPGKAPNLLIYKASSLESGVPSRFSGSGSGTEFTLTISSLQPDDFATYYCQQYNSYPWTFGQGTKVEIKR
notes: human IgG1
B6: COV_1136 (antibody, V domains shown)
VH: B5 VH with S28T, N31D, Y32C, Y50S, S54R, G88A
VL: DIQMTQSPSTLSASVGDRVTITCRASQSISSWLAWYQQKPGKAPNLLIYKASSLESGVPSRFSGSGSGTEFTLTISSLQPDDFATYYCQQYNTYPWTFGQGTKVEIKR
notes: human IgG1
B7: COV_1154 (antibody, V domains shown)
VH: B5 VH with S28R, N31D
VL: B6 VL with D81Y, T93S, T97A, I106M
notes: human IgG1
B8: COV_1177 (antibody, V domains shown)
VH: QVQLVESGGGVVQPGRSLRLSCAASGFTFSSYGMHWVRQAPGKGLEWVAVIWYDGSNKYYADSVKGRFTISRDNSKNTLYLQMNSLRAEDTAVYYCARDPLGAVAGYFDYWGQGTLVTVSS
VL: SYVLTQPPSVSVAPGQTARITCGGNNIGSKSVHWYQQKPGQAPVLVVYDDSDRPSGIPERFSGSNSGNTATLTISRVEAGDEADYYCQVWDSSSDHHWVFGGGTKLTVLG
notes: human IgG1
B9: COV_3069 (antibody, V domains shown)
VH: EVQLVESGGGLVKPGGSLRLSCAASGFTFGSYTMNWVRQAPGKGLEWVSSIDTTSSSIYYADSLKGRFAISRDSAKNSLYLQMNRLRAEDTAVYYCARGNGHSYDSSGYHYGMYFDYWGQGTLVTVSS
VL: B6 VL with S31R, N45K, K50E, A51V, S56N, G66R, T85I, P95S, W96R
notes: human IgG1
B10: COV_1184 (antibody, V domains shown)
VH: QVQLQQWGAGLLKPSETLSLTCAVYGGSFSGYYWSWIRQPPGKGLEWIGEINHSGNTTYNPSLKSRVTISVDTSKNQFSLKLSSVTAADTAVYYCARGLVITYYYDSSGKPFDPWGQGTLVTVSS
VL: not shown
notes: human IgG1
B11: COV_1145 (antibody, V domains shown)
VH: QVQLVESGGGVVQPGRSLRLSCAASGFTFSSYGMHWVRQAPGKGLEWVAVIWYDGSNKYYADSVKGRFTISRDNSKNTLYLQMNSLRVEDTAVYYCAREGQLGATGLDCWGQGTLVSVSS
VL: SYELTQPPSVSVSPGQTARITCSGDALPKKYAYWYQQKSGQAPVLVIYEDSKRPSGIPERFSGSSSGTMATLTISGAQVEDEADYYCYSTDNSGNHWVFGGGTKLTVLG
notes: human IgG1
B12: COV_2215 (antibody, V domains shown)
VH: EVQLVESGGGLVKPGGSLRLSCAASGFTFSHAWMSWVRQAPGKGLEWVGRIKSKTDGGTADYAAPVKGRFTISRDDSKNTLYLQMNSLKTEDTAVYYCATIRYYYDSSAYLNDAFDIWGQGTMVTVSS
VL: B11 VL with N92S, W97R, G100A
notes: human IgG1
B13: COV_3053 (antibody, V domains shown)
VH: EVQLVESGGGLVQPGRSLRLSCTASGFTLGDYAMTWVRQAPGKGLEWLGIIRNKRYGETKQYAASVKGRFTFSRDDSKGIGYLQRLSLKIEDTGVYYCTREHIVRDDAFDVWGQGTTVTVSS
VL: DIVMTQSPDSLAVSLGERATINCKSSQSVLYSSNNKNYIAWYQQRPGQPPKLLIYWTSTRASGVPDRFSGSGSGTDFALTISSLQAEDVAVYYCQQYYTIPRTFGQGTKVEIK
notes: human IgG1
B14: COV_3129 (antibody, V domains shown)
VH: QVQLQQWGAGLLKPSDTLSLTCAANGGGSFSGYYLGYIRQSPGKGLEWIGEINHNGGTNYNPSLKSRVTISGDTSKNQFSLKLSSVTAADTAIYYCARSRDSSLGDAVWYEYWGQGTLITVSS
VL: EIVLTQSPATLSLSPGERATLSCRASQSVDIYLAWYQQRPGQAPRLLISDASKRATGVPARFSGSGSGTDFTLTINSLEPEDFAIYYCQQRRDWPINFGQGTRLEIKR
notes: human IgG1
B15: COV_2205 (antibody, V domains shown)
VH: EVQLVESGGGLVKPGGSLRLSCAASGFTFSDYYMIWIRQAPGEGLEWVSYISSRSSYTNYADSVKGRFTISRDNARNSLYLQMNSLRAEDTAVYYCARGQHDLLTGYYSWAYFDYWGQGTLVTVSS
VL: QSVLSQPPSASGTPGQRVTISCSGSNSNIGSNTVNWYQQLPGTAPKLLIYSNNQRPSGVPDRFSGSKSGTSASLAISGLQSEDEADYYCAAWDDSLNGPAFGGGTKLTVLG
notes: human IgG1
B16: COV_2125 (antibody, V domains shown)
VH: EVQLVESGGGVVQPGRSLRLSCAASGFTFSSYGMHWVRQAPGKGLEWVAVISYDGSNKYYADSVKGRFTISRDNSKNTLSLQMNSLRPEDTAVYYCAKDSPYYYDSSGYYPGYFQDWGQGSLVTVSS
VL: B3 VL with V15I, S28T, T31D, S53T, H92Y, S93I, P100Q, D105E
notes: human IgG1

For one assay, the target named is SARS-CoV-2 S on pseudovirions (Wuhan Hu-1 / IL1/2020, last 18 amino acids removed) (SARS-CoV-2, UniProt P0DTC2 14-1273). Description: cell-based or functional assay.
With B1, the “Mean IC50, pSV neutralization” value was found to be 0.02 µg/ml and the “Mean IC80, pSV neutralization” value was 23.4 µg/ml.
The matching figures for B2: 0.16 µg/ml and 0.45 µg/ml.
In the case of B3, the “Mean IC50, pSV neutralization” value was 0.97 µg/ml and the “Mean IC80, pSV neutralization” value is 8.99 µg/ml.

Another assay concerns the target SARS-CoV-1 spike antigens (bead panel) (SARS-CoV-1, UniProt P59594 14-1195). The experiment in a line: multiplex bead assay.
Turning to B4, the binding result is listed as “no binding”.
For the molecule B1, the binding result is reported as “no binding”.
On the same count and under the same terms, to B5 belongs “no binding”; to B6, “no binding”; to B7, “no binding”.
The same measure, in the same setting: the same measure for B8: “no binding”.
The same measure, in the same setting: to B9 belongs “no binding”.
Consider B10, for which the binding result is on record as “no binding”.
Same read-out and setting: the same measure for B11: “no binding”; for B12: “no binding”.
On the same count and under the same terms, the same measure for B13: “no binding”.
Still for that read-out and setting: the same measure for B14: “no binding”; for B15: “no binding”; for B2: “no binding”.
For B3, the binding result is on record as “no binding”.
Still for that read-out and setting: to B16 belongs “no binding”.

A further assay has as its target T1, MERS-CoV spike antigens (bead panel). The experiment in a line: multiplex bead assay.
Turning to B4, the binding result is “no binding”.
As for B5, the binding result was “no binding”.
Same read-out and setting: the same measure for B6: “no binding”.
On to B7, for which the binding result is given as “no binding”.
Same read-out and setting: the same measure for B8: “no binding”.
On the same count and under the same terms, the same measure for B9: “no binding”; for B10: “no binding”.
B11: the binding result is listed as “no binding”.
Take B12: the binding result is listed as “no binding”.
With B13, the binding result was “no binding”.
B14: the binding result was “no binding”.
On the same count and under the same terms, the same measure for B15: “no binding”.
